Source: patent publication US6485936 (HSP RESEARCH INSTITUTE, dated 2002)

Key:
[1] = target: T1, GST-HSF2N96C328 (human, UniProt Q03933 96-328); test: GST pull-down with GST-HSF2N96C328; 35S-labeled in vitro translated protein
T1 construct: Expressed in E. coli and immobilized on glutathione-Sepharose; also called HSF2N96C328 (GST fusion); not shown: glutathione S-transferase (GST) encoded by the pGEX-5X-1 vector (Pharmacia)
T1 sequence (looked up): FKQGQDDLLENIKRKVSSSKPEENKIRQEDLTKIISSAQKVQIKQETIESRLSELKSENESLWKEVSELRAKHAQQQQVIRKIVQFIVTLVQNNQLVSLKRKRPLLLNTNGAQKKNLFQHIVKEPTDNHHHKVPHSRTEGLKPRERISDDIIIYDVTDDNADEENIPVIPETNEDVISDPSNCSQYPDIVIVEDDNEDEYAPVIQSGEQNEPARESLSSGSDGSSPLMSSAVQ

[2] = target: T1, GST-HSF2N96C328; test: GST pull-down, 35S-labeled in vitro translated deletion mutant

B1: HSF2 binding protein (HSF2BP), in vitro translated, 35S-methionine-labeled (other)
chain: MGEAGAAEEACRHMGTKEEFVKVRKKDLERLTTEVMQIRDFLPRILNGEVLESFQKLKIVEKNLERKEQELEQLKMDCEHFKARLETVQADNIREKKEKLALRQQLNEAKQQLLQQAEYCTEMGAAACTLLWGVSSSEEVVKAILGGDKALKFFSITGQTMESFVKSLDGDVQELDSDESQFVFALAGIVTNVAAIACGREFLVNSSRVLLDTILQLLGDLKPGQCTKLKVLMLMSLYNVSINLKGLKYISESPGFIPLLWWLLSDPDAEVCLHVLRLVQSVVLEPEVFSKSASEFRSSLPLQRILAMSKSRNPRLQTAAQELLEDLRTLEHNV
modifications: 35S-methionine label
notes: In vitro translated (TNT kit) from HSF2BP cDNA in pcDNA 3.1 His A, B or C; also called human HSF2BP; intact HSF2BP
- proportion bound (% of the level of input) [1]: 12.9 % of the level of input

B2: BP-C150 (deletion mutant of HSF2BP), in vitro translated, 35S-methionine-labeled (other)
chain: MGEAGAAEEACRHMGTKEEFVKVRKKDLERLTTEVMQIRDFLPRILNGEVLESFQKLKIVEKNLERKEQELEQLKMDCEHFKARLETVQADNIREKKEKLALRQQLNEAKQQLLQQAEYCTEMGAAACTLLWGVSSSEEVVKAILGGDKA
modifications: 35S-methionine label
notes: Vector pcDNA 3.1 His; tag residues are not described
- proportion bound (% of the level of input) [1]: 22.3 % of the level of input

B3: BP-C115 (deletion mutant of HSF2BP), in vitro translated, 35S-methionine-labeled (other)
chain: MGEAGAAEEACRHMGTKEEFVKVRKKDLERLTTEVMQIRDFLPRILNGEVLESFQKLKIVEKNLERKEQELEQLKMDCEHFKARLETVQADNIREKKEKLALRQQLNEAKQQLLQ
modifications: 35S-methionine label
- proportion bound (% of the level of input) [1]: 5.7 % of the level of input

B4: BP-C73 (deletion mutant of HSF2BP), in vitro translated, 35S-methionine-labeled (other)
chain: MGEAGAAEEACRHMGTKEEFVKVRKKDLERLTTEVMQIRDFLPRILNGEVLESFQKLKIVEKNLERKEQELEQ
modifications: 35S-methionine label
- binding result [2]: no binding

B5: BP-N115 (deletion mutant of HSF2BP), in vitro translated, 35S-methionine-labeled (other)
chain: QQAEYCTEMGAAACTLLWGVSSSEEVVKAILGGDKALKFFSITGQTMESFVKSLDGDVQELDSDESQFVFALAGIVTNVAAIACGREFLVNSSRVLLDTILQLLGDLKPGQCTKLKVLMLMSLYNVSINLKGLKYISESPGFIPLLWWLLSDPDAEVCLHVLRLVQSVVLEPEVFSKSASEFRSSLPLQRILAMSKSRNPRLQTAAQELLEDLRTLEHNV
modifications: 35S-methionine label
- binding result [2]: no binding
